Experimental data as given in patent US9809653B2, “Anti-LAMP1 antibodies and antibody drug conjugates, and uses thereof” (SANOFI, priority 2012, dated 2017).
Values joined by “and” are separate entries in the source; they are usually repeats but may differ in a detail not shown here. Equal values may be shown once. Read-outs that look alike come from different tables or passages of the source. Values belong to the molecule of their own block, whether it stands above or below them.

What was measured:
[1] = target: T1, LAMP1 expressed on the surface of advanced human primary colon tumor CR-IGR-034P (Homo sapiens, UniProt P11279); experiment: Apparent affinity to human primary colon tumor PDX by flow cytometry; assay type: binding; conditions: dissociated PDX tumor cells, 45 min at 4° C., read-out: EC50 obtained with CR-IGR-034P
T1 construct: endogenous in cells; host or cells: enzymatically dissociated patient-derived xenograft tumour cells (e.g. CR-IGR-034P, LUN-NIC-014P, BRE-IGR-0159) and tumour cell lines
T1 sequence (P11279 29-417): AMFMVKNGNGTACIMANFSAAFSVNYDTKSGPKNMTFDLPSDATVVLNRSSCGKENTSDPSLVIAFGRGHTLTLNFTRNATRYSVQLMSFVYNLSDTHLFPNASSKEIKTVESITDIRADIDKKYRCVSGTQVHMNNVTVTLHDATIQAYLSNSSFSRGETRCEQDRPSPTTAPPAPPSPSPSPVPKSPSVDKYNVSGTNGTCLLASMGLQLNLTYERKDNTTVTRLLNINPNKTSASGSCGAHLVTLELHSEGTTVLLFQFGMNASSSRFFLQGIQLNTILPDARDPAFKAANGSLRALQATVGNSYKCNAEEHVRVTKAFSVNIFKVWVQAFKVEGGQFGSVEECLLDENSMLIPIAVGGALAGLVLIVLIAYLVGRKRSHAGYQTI
Description: Advanced human primary colon tumor CR-IGR-034P was obtained from Patient-derived xenograft in mice. Tumor CR-IGR-034P was enzymatically dissociated using collagenase Type IV (Invitrogen; #17104-019) and deoxyribonuclease I (Invitrogen; #18047-019) for 1 h at 4° C. Cell viability was estimated by Viacount application using Guava® easyCyte™ 8HT Flow Cytometry System. […] 100 μL/well of goat anti-mouse IgG conjugated with Alexa647 (Invitrogen; #A2135) or goat anti-human IgG conjugated with Alexa488 (Invitrogen; #A11013) was added for 45 min at 4° C. and washed three times with PBS 1% BSA. The antibody binding was evaluated after centrifugation and resuspension of cells by adding 200 μl/well PBS 1% BSA and read using Guava® easyCyte™ 8HT Flow Cytometry System. EC50 values were estimated using BIOST@T-SPEED software. EC50 values obtained with the advanced human primary colon tumor CR-IGR-034P are listet in Table 3.

[2] = system: hybrid between murine and human LAMP1 domains; experiment: Epitope ELISA on human/mouse hybrid LAMP1 extracellular domains; assay type: binding
Description: The high level of glycosylation of the antigen required a specific approach to determine the binding site of the anti-LAMP1 mAbs on LAMP1. […] This absence of binding was used to design several chimeric LAMP1 proteins in which one or several of the LAMP1 domains (Loop1-Loop4) in the human construct were replaced by the murine counterpart. The absence of binding once the binding site of the antibody was replaced by the murine counterpart allowed for identification of the antibody binding side.

[3] = target: T2, recombinant human LAMP1 (29-382 of SEQ ID NO: 28) (Homo sapiens, UniProt P11279); experiment: ELISA on recombinant human LAMP1; assay type: binding
T2 construct: made in house; host or cells: HEK293 (293-F), transient expression, IMAC-purified
T2 sequence (P11279 with tags, fused parts or gaps): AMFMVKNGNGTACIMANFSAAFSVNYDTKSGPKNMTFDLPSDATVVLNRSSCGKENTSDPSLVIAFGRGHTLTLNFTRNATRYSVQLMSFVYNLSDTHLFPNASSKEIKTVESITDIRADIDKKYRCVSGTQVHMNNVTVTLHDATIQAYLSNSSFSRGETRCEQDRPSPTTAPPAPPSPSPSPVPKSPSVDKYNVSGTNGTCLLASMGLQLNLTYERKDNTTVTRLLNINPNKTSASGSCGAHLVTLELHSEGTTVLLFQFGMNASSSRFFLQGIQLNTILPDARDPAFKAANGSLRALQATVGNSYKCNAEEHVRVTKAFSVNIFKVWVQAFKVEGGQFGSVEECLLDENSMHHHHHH

[4] = system: cynomolgus LAMP1 expressed at the cell surface of recombinant HCT116; experiment: FACS on recombinant HCT116 stable clones expressing cynomolgus LAMP1; assay type: binding, cynomolgus monkey; conditions: HCT116 stable clone
Description: HCT116 cells were infected by a lentiviral vector allowing stable integration of the human or the cynomolgus LAMP1 CDS in genomic DNA of cells. Individual clones with different densities of human or cynomolgus LAMP1 cell surface localization were derived from a pool of HCT116 infected cells. […] 100 μL/well of goat anti-human IgG conjugated with Alexa488 (Invitrogen; #A11013) was added for 1 h at 4° C. and washed two times with PBS 1% BSA. The antibody binding was evaluated after centrifugation and resuspension of cells in 100 μl fixing solution (paraformaldehyde at 4% in PBS). Samples were read using Galaxy® Flow Cytometry System (Partec). EC50 values were estimated using BIOST@T-SPEED software.
100 μL/well of goat anti-mouse IgG conjugated with Alexa647 (Invitrogen; #A2135) was added for 45 min at 4° C. and washed three times with PBS 1% BSA. The antibody binding was evaluated after centrifugation and re-suspension of cells by adding 200 μl/well PBS 1% BSA and read using Guava® easyCyte™ 8HT Flow Cytometry System. EC50 values were estimated using BIOST@T-SPEED software.

[5] = read-out: EC50 (nM) Loop1-2: hLAMP1 Loop3-4: mLAMP1
[6] = read-out: EC50 (nM) Loop1-3: hLAMP1 Loop4: mLAMP1
[7] = ELISA (Table 7), read-out: EC50
[8] = ELISA (Table 13), read-out: EC50 (nM) human LAMP1
[9] = ELISA (Table 21), read-out: EC50 obtained for murine hybridoma mAbs hLAMP1

cynomolgus LAMP1 expressed at the cell surface of recombinant HCT116, sequence (as listed by the source): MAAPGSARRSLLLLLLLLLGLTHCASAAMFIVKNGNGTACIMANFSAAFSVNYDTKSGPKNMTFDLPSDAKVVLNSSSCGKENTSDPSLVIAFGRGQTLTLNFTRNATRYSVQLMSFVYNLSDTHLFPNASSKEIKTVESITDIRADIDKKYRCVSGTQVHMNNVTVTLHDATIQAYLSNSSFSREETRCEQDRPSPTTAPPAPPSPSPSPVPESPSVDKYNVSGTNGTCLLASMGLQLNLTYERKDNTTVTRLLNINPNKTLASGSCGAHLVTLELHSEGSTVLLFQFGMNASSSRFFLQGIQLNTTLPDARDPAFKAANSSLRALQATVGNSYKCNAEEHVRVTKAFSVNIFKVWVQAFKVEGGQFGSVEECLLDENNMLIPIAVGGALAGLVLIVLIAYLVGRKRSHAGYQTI

EC50 [1]: 5 nM
EC50 (nM) Loop1-2: mLAMP1 Loop3-4: hLAMP1 [2]: No binding
EC50 [2, 5]: 0.18 nM
EC50 [2, 6]: 0.16 nM
EC50 ([2]; read-out: EC50 (nM) Loop1: mLAMP1 Loop2-4: hLAMP1): 0.15 nM
EC50 [3, 7]: 0.18 nM
EC50 [3, 8]: 0.18 nM
EC50 [3, 9]: 0.18 nM
EC50 ([3]; ELISA, read-out: EC50 to LAMP1): 0.16 nM and ~0.2 nM
EC50 [4]: 5.5 nM
B1: MAb1: murine monoclonal anti-LAMP1 antibody, VH SEQ ID NO: 1, VL SEQ ID NO: 5 (antibody, V domains shown)
VH: QVQLQQSGAELVKPGASVKMSCKASGYIFTNYNIHWVKKSPGQGLEWIGAIYPGNGDAPYSQKFKDKATLTADKSSSTTYMQLSRLTSEDSAVYYCVRANWDVAFAYWGQGTLVSVSA
VL: DIQMTQSPPSLSASLGGKVTITCKASQDIDRYMAWYQDKPGKGPRLLIHDTSTLQPGIPSRFSGSGSGRDYSFSISNLEPEDIATYYCLQYDNLWTFGGGTKLEIK
modifications: Antibody Fragment; antibody fragment

EC50 [1]: 14 nM
EC50 (nM) Loop1-2: mLAMP1 Loop3-4: hLAMP1 [2]: No binding
EC50 (nM) Loop1: mLAMP1 Loop2-4: hLAMP1 [2]: No binding
EC50 [2, 5]: 0.25 nM
EC50 [2, 6]: 0.25 nM
EC50 [3, 7]: 0.25 nM
EC50 [3, 8]: 0.25 nM
EC50 [3, 9]: 0.25 nM
EC50 ([3]; ELISA, read-out: EC50 to LAMP1): ~0.3 nM
EC50 [4]: 6.6 nM
B2: MAb2: murine monoclonal anti-LAMP1 antibody, VH SEQ ID NO: 8, VL SEQ ID NO: 12 (antibody, V domains shown)
VH: QVQLQQSAAELARPGASVKMSCKASGYTFTSYTMHWVKQRPGQGLEWIGYFNPSSGYPEYNQKFKDKTTLTADKSSNTAFIQLNSLTSEDSAVYYCSRGYYYGSRGYALDFWGQGASVTVSS
VL: NIVLTQSPVSLAVSLGQRATISCRASESVDINGNTFMHWYQQKPGQSPKLVIYAASNIESGVPARFSGSGSSTDFTFTIDPVEADDVATYYCQQNIEDPWTFGGGTKVEIK
modifications: antibod fragment; antibody fragment
